Like-named read-outs stand apart in the source and are kept apart here.
How the values were obtained:
[1] = target: Alka channel (Drosophila melanogaster alkaline taste receptor Alka) (Drosophila melanogaster); assay: cryo-EM structure
[2] = target: Alka channel (Drosophila melanogaster alkaline taste receptor Alka) (Drosophila melanogaster); assay: cryo-EM structure; remark: listed apart in the source

stoichiometry N [1]: 5 | stoichiometry N [2]: 5
Substance: Alka channel (Drosophila melanogaster alkaline taste receptor Alka)
